Article PMC1802567
Read-outs that look alike come from different tables or passages of the source.

Experiments:
p73β(C262S) = molecular target: T1, p73β(C262S) (UniProt O15350-2 1-499, C262S); test: DNA immunobinding assay
T1 sequence: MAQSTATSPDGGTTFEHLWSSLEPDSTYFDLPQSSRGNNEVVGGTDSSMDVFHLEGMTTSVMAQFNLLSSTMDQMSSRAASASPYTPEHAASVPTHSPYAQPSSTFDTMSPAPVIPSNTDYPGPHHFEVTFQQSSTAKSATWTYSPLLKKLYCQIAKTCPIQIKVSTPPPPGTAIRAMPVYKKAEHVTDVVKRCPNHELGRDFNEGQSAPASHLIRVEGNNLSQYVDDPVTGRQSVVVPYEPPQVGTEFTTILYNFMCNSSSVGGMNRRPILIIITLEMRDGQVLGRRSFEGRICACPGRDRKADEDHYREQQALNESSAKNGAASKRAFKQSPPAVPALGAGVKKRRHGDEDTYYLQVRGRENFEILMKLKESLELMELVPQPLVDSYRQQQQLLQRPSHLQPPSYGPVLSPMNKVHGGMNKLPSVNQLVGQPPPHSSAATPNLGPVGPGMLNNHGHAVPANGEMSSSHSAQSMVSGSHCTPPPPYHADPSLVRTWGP

p73α = molecular target: T2, p73α (UniProt O15350 1-636); test: EMSA
T2 sequence: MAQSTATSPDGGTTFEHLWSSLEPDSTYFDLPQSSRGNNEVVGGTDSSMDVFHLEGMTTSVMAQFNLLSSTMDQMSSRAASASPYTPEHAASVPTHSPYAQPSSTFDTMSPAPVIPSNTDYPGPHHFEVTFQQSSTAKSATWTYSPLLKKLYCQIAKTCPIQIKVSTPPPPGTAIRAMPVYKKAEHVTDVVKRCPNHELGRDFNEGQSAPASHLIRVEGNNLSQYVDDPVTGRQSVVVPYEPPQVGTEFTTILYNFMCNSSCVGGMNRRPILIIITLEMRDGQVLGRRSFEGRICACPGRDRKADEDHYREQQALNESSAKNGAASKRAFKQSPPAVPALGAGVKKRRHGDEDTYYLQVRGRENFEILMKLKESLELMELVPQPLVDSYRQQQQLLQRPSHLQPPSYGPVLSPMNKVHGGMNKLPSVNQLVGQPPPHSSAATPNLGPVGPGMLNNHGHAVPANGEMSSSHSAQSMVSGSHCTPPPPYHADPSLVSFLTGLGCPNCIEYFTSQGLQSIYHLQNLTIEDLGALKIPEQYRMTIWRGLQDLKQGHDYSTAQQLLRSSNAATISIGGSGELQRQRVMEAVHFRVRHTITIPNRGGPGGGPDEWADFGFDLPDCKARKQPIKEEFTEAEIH

p73β [1] = molecular target: T3, p73β (UniProt O15350-2 1-499); test: EMSA
T3 sequence: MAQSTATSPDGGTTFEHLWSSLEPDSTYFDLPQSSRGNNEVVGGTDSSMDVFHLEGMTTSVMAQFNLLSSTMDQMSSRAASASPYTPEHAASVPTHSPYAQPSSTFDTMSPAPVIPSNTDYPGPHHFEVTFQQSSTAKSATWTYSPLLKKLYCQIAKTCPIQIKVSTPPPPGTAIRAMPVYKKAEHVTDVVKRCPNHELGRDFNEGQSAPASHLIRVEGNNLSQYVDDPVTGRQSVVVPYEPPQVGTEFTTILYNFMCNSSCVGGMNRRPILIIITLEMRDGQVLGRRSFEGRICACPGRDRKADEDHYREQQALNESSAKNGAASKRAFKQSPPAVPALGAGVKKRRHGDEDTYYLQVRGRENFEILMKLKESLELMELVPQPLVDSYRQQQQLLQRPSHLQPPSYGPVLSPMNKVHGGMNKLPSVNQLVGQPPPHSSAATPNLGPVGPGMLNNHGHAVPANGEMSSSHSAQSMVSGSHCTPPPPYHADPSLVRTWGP

p53 [2] = molecular target: T4, p53 (UniProt P04637 1-393); test: EMSA
ΔNp63β = molecular target: T5, ΔNp63β (UniProt Q9H3D4-4 1-461); test: EMSA
T5 sequence: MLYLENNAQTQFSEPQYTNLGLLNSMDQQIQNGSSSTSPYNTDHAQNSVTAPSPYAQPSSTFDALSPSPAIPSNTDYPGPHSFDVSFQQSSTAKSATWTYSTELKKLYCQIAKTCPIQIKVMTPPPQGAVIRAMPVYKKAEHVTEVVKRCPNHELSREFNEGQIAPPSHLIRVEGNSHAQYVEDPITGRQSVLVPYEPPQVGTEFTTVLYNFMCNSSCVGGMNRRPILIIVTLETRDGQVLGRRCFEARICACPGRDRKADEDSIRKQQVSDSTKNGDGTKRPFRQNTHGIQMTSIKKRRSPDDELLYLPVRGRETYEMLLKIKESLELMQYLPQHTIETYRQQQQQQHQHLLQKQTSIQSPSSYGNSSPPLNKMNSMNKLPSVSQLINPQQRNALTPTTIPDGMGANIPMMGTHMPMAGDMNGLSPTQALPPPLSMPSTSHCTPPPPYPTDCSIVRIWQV

p73β [3] = molecular target: T3, p73β; test: EMSA; remark: listed apart in the source
p53 [4] = molecular target: T4, p53; test: EMSA; remark: listed apart in the source
p73β [5] = molecular target: T3, p73β; test: EMSA; remark: listed apart in the source
p73β [6] = molecular target: T3, p73β; test: EMSA; remark: listed apart in the source

T4 sequence (P04637 whole entry): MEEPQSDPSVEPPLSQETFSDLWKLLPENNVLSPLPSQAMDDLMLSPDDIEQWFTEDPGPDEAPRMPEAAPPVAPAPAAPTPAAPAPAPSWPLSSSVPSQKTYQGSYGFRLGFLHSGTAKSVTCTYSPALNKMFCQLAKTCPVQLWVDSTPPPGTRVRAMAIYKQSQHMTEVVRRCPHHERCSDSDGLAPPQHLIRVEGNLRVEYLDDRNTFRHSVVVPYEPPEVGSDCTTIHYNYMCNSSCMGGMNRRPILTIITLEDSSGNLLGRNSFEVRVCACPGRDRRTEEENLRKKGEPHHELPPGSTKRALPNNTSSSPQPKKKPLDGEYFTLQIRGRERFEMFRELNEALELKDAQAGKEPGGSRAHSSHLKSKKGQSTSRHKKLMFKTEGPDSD

B1: p21 5' site (dsDNA)
DNA 1: AGCTAGTAGAGCGAACATGTCCCAACATGTTGGCGTGCTGCAGC
DNA 2: GCTGCAGCACGCCAACATGTTGGGACATGTTCGCTCTACTAGCT
binding signal (p73β(C262S)): 1.5 fold over background | binding result (p73α): binds | binding result (p73β [1]): binds | binding result (p53 [2]): binds | binding result (ΔNp63β): binds

B2: PPC (dsDNA)
DNA 1: AGCTAGTAGAGCTGGCATGTCCCGACTTGTTAGCGTGCTGCAGC
DNA 2: GCTGCAGCACGCTAACAAGTCGGGACATGCCAGCTCTACTAGCT
binding result (p73β [3]): binds | binding result (p53 [4]): binds

B3: PUMA (dsDNA)
DNA 1: AGCTAGTAGAGCCTGCAAGTCCTGACTTGTCCGCGTGCTGCAGC
DNA 2: GCTGCAGCACGCGGACAAGTCAGGACTTGCAGGCTCTACTAGCT
binding result (p73β [5]): binds

B4: PIG3 (dsDNA)
DNA 1: AGCTAGTAGAGCCAGCTTGCCCACCCATGCTCGCGTGCTGCAGC
DNA 2: GCTGCAGCACGCGAGCATGGGTGGGCAAGCTGGCTCTACTAGCT
binding result (p73β [6]): binds | binding result (p53 [2]): binds
